For experiment [1], the target named is T1, recombinant human CD30L isoleucine zipper (huCD30L LZ) (human, UniProt P32971 63-234).
T1 construct: also called huCD38L LZ; CD30L LZ Hu; not shown: N-terminal isoleucine zipper motif (leucine zipper with leucines replaced by isoleucines)
T1 sequence: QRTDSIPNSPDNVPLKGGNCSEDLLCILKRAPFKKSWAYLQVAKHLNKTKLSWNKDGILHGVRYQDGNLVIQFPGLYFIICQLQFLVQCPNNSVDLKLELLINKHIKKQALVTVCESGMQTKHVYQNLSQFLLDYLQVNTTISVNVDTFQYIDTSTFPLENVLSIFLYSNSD
As to the kind of experiment: blocking of human CD30L LZ binding to K299 cells (CD30).

The target of experiment [2] is T2, FLAG-hCD30L-EC (N153Q) treated with PNGaseF (human).
T2 construct: also called FLAG-hCD30L-EC + PNGaseF
T2 chain: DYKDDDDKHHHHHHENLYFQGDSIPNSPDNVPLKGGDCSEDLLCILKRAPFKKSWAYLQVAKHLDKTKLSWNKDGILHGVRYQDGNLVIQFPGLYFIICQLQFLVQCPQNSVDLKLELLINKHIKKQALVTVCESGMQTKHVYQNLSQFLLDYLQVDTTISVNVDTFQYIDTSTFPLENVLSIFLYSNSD
The experiment is described as follows: HX-MS, 6 uM hCD30L with 6.6 uM mAb.

Experiment [3] deals with T1, recombinant human CD30L isoleucine …. As to the kind of experiment: cell-based or functional assay.
Experiment [4] has as its target T3, native human CD30L expressed on Ramos cells (human, UniProt P32971 1-234).
T3 sequence: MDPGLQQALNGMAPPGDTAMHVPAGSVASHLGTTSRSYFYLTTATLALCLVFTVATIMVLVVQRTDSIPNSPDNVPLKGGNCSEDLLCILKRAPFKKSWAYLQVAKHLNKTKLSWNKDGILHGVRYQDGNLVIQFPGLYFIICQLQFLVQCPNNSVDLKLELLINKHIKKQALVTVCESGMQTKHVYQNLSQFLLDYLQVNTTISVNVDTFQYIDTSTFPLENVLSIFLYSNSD
As to the kind of experiment: cell-based or functional assay.

The target in experiment [5] is T4, cyno CD30L LZ (cynomolgus monkey, UniProt A0A7N9CVX7 63-234).
T4 sequence: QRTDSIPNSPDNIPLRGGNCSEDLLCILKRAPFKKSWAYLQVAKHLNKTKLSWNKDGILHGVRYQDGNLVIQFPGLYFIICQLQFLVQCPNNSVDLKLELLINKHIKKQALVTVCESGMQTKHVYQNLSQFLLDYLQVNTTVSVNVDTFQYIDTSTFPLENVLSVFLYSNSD
The experiment is described as follows: cell-based or functional assay.

Experimental findings from patent US20220112295A1 (Novo Nordisk, published 2022) are described below.

Usually IC50 stands for the point on the concentration scale where inhibition reaches its midpoint.

B1: Antibody A1 (antibody, V domains shown)
VH: QVQLQESGPGLVKPSETLSLTCTVSGGSISSYIWSWIRQPAGKGLEWIGRIYASGNTNYNPSLKSRVTISVDTSKNQFSLKLSSMTAADTAVYYCARDYRVAGTYYYYYGLDVWGQGTTVTVSS
VL: QSALTQPASVSGSPGQSITISCTGTSSDVGVYDYVSWYQQHPGKAPKLMIYEVSNRPSGVSNRFSGSKSGNTASLTISGLQTEDEADYYCSSYTSRSTWVFGGGTKLTVL
notes: also called mAb A1; Antibody A1 IgG2
B1: the half-inhibitory concentration (IC50) in experiment [1] was 1.4 nM. Further, the binding result in experiment [2] is “binds”. In addition, the “IC50, inhibition of IL-8 release (K299 single cell assay with huCD30L LZ)” value in experiment [3] amounted to 2.7 nM. In addition, in experiment [4], the “IC50, inhibition of IL-8 release (K299/Ramos dual cell assay)” value amounted to 0.033 nM. The “IC50, inhibition of IL-8 release (K299 single cell assay with cyno CD30L LZ)” value in experiment [5] was found to be 2.4 nM.

B2: Antibody A1 IgG1 (antibody, V domains shown)
VH: QVQLQESGPGLVKPSETLSLTCTVSGGSISSYIWSWIRQPAGKGLEWIGRIYASGNTNYNPSLKSRVTISVDTSKNQFSLKLSSMTAADTAVYYCARDYRVAGTYYYYYGLDVWGQGTTVTVSS
VL: QSALTQPASVSGSPGQSITISCTGTSSDVGVYDYVSWYQQHPGKAPKLMIYEVSNRPSGVSNRFSGSKSGNTASLTISGLQTEDEADYYCSSYTSRSTWVFGGGTKLTVL
Consider B2, for which, in experiment [4], the “IC50, inhibition of IL-8 release (K299/Ramos dual cell assay)” value turned out to be 0.032 nM. For the same molecule, the “IC50, inhibition of IL-8 release (K299 single cell assay with cyno CD30L LZ)” value in experiment [5] worked out at 1.5 nM.
